Patent US20200123239A1 (PROTHENA BIOSCIENCES, published 2020)

T1: tau peptide fragment, residues 24-44 of SEQ ID NO: 1 (human)
T1 construct: Proteolytic fragment (trypsin digest) of rTau, precipitated with 16B5 and identified by MALDI-TOF/TOF
T1 peptide: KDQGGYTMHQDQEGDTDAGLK

T2: tau peptide fragment, residues 25-44 of SEQ ID NO: 1 (human)
T2 construct: Proteolytic fragment (LysC and trypsin digests) of rTau, precipitated with 16B5 and identified by MALDI-TOF/TOF
T2 peptide: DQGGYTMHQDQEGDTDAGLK


How the values were obtained:
[1] = target: T3, Δ25-44 deletion mutant of tau (rTau) (human, UniProt P10636 1-758); assay: Western blot of bacterial lysates
T3 construct: Deletion mutagenesis of rTau; Tested as clarified bacterial lysate on Western blots; also called A25-44
T3 sequence (P10636 other isoform, or with tags, fused parts or gaps mutant): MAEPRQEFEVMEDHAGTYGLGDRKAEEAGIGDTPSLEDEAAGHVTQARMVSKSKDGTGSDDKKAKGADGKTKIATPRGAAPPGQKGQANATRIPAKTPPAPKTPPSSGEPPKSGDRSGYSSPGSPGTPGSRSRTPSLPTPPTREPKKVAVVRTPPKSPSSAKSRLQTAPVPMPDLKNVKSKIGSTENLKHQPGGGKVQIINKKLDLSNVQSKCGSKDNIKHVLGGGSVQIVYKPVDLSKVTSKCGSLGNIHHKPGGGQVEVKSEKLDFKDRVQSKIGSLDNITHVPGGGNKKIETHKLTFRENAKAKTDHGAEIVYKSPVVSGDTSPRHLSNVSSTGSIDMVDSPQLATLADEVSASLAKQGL
Protocol: (§1) To control for sample loading, Tau46, an antibody with specificity for the C-terminal region of tau (C-terminal epitope), was used to stain duplicate blots. Both antibodies were used at a concentration of 0.2 μg/mL. Images were captured using a Licor Odyssey fluorescent scanner. The following deletion mutants of tau were made and analyzed in this manner: Δ5-24, Δ23-32, Δ25-44, Δ30-39, and Δ37-46.

[2] = target: T4, Δ30-39 deletion mutant of tau (rTau) (human, UniProt P10636 1-758); assay: Western blot of bacterial lysates
T4 construct: Deletion mutagenesis of rTau; Tested as clarified bacterial lysate on Western blots; also called A30-39
T4 sequence (P10636 other isoform, or with tags, fused parts or gaps mutant): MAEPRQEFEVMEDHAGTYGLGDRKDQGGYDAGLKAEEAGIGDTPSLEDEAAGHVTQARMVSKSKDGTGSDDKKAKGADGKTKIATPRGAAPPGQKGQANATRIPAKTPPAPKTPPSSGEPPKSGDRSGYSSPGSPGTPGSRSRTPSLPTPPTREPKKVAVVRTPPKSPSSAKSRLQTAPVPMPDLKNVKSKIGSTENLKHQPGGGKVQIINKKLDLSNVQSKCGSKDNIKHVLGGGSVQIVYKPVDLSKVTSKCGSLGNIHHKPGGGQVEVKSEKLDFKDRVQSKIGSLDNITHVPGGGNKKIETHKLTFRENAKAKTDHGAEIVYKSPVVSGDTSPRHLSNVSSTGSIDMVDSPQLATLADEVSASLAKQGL
Protocol: as §1

[3] = target: T5, Δ23-32 deletion mutant of tau (rTau) (human, UniProt P10636 1-758); assay: Western blot of bacterial lysates, 16B5 at 0.2 µg/mL
T5 construct: Deletion mutagenesis of rTau; Tested as clarified bacterial lysate on Western blots; also called A23-32
T5 sequence (P10636 other isoform, or with tags, fused parts or gaps mutant): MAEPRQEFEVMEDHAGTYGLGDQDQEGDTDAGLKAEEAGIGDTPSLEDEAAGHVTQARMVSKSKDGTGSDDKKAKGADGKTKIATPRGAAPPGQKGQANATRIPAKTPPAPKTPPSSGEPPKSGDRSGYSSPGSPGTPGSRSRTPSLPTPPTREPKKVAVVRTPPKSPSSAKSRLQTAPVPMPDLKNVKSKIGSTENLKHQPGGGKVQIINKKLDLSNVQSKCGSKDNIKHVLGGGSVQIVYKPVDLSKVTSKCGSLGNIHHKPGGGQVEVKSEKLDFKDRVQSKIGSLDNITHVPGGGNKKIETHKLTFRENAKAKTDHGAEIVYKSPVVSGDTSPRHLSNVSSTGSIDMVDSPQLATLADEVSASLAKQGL
Protocol: as §1

[4] = target: T6, human tau with 4 microtubule binding repeats and no N-terminal inserts, containing a P301L mutation (rTau) (human, UniProt P10636 2-758); assay: Western blot of bacterial lysate, stained with 16B5 at 0.2 ug/mL
T6 construct: Expressed in E. coli and purified; also called full-length Tau; wild-type Tau (WT) on the blots
T6 sequence (P10636 other isoform, or with tags, fused parts or gaps P301L P301L limits assumed): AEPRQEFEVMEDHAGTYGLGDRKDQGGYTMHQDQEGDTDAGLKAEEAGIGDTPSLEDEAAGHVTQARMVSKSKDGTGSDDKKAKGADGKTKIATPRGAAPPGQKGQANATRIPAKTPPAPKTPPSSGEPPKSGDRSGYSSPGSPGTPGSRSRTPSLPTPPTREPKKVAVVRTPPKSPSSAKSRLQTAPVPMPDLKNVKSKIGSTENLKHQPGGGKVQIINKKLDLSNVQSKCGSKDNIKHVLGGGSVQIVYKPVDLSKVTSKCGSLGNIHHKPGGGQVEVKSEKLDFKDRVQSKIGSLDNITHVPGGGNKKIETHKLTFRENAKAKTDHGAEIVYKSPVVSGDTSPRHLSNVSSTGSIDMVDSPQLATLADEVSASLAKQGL
Protocol: as §1

[5] = target: T7, Δ5-24 deletion mutant of tau (rTau) (human, UniProt P10636-6 1-383); assay: as above
T7 construct: Deletion mutagenesis of rTau; Tested as clarified bacterial lysate on Western blots; also called A5-24
T7 sequence (P10636 other isoform, or with tags, fused parts or gaps mutant): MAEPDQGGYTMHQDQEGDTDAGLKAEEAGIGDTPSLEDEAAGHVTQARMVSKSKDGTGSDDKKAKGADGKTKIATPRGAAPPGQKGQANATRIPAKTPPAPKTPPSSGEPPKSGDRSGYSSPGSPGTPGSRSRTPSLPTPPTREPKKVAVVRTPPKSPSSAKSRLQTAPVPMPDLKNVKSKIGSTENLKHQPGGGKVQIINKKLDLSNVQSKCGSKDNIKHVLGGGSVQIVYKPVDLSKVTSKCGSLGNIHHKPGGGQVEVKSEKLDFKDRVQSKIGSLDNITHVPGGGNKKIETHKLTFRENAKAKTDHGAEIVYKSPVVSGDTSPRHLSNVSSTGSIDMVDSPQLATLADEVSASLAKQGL
Protocol: as §1

[6] = target: T1, tau peptide fragment, residues 24-44 of …; assay: precipitation of digest fragments with 16B5, HPLC, MALDI-TOF/TOF (trypsin digest)
Protocol: (§2) The human tau sequence with 4 microtubule binding repeats and no N-terminal inserts, and containing a P301L mutation (rTau), was expressed in E. coli and purified. […] Enzymatic digests of 200 ug of tau were carried out with one of four different proteases: trypsin (which cleaves at the carboxyl end of arginine and lysine), chymotrypsin (which primarily cleaves at the carboxyl end of tyrosine, tryptophan, phenylalanine and leucine), LysC (which cleaves at the carboxyl end of lysine), or GluC (which cleaves after glutamate residues and rarely after aspartate residues). All proteases were obtained from Thermo Scientific, and digests were performed for 16 h at 37° C. […] Precipitates were thoroughly washed in PBS containing 300 mM NaCl and 0.5% NP-40, then eluted with 1M NaCl in 100 mM glycine, pH 2.8. Eluates were dried under vacuum and resuspended in 0.1% trifluoroacetic acid (TFA). […] Peak fractions were collected, dried and resuspended in distilled water. Peptide masses and identities were determined by MALDI-TOF/TOF.

[7] = target: T2, tau peptide fragment, residues 25-44 of …; assay: precipitation of digest fragments with 16B5, HPLC, MALDI-TOF/TOF (LysC and trypsin digests)
Protocol: as §2

[8] = target: recombinant purified hTau-P301L (human) (UniProt P10636); assay: SPR (Biacore T200), antibody captured on anti-human or anti-mouse antibody, hTau-P301L as analyte
Sequence of recombinant purified hTau-P301L (human) (P10636 other isoform, or with tags, fused parts or gaps P301L P301L): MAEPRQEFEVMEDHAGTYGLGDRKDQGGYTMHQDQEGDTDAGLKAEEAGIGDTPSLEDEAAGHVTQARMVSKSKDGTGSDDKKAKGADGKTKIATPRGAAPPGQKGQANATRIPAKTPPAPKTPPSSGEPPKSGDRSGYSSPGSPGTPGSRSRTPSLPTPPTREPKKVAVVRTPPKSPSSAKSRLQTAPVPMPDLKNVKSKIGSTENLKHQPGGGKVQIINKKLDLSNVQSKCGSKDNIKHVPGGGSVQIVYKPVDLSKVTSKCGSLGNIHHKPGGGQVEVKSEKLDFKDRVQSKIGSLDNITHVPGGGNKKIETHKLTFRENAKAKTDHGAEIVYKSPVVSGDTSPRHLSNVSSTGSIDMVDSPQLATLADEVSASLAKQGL

binding result [1]	binding result [2]	binding result [3]	binding result [4]	binding result [5]	binding result [6]	binding result [7]	Kd [8]	koff [8]	kon [8]	Binder
no binding (tested: 0.2 µg/mL)	no binding (tested: 0.2 µg/mL)	binds	binds	binds	binds	binds				murine monoclonal anti-tau antibody 16B5 (antibody, V domains shown, Mouse monoclonal antibody; the isotype control used alongside it is IgG1; also called 16B5 monoclonal antibody; pan antibody 16B5) VH: QIQLVQSGPELKKPGETVKISCKASGYPFTYHGMDWVKQAPWGGLEWMGWINTYSGVPTYADDFKGRFAFSLETSVGTAYLQINNLKNEDTATYFCARRRDFTMDFWGQGTSVTVSS VL: NIVLSQSPSSLAVSPGEKVTMSCKSSQSLLNSRTRKNYLAWFQQKPGQSPKLLIYWASTRESGVPDRFTGSGSGTDFTLTISSVQAEDLAVYYCKQSYTLRTFGGGTNLEIKR
							0.617 nM	0.00215 s⁻¹	3.5e+06 M⁻¹ s⁻¹	humanized 16B5 antibody, version H1L1 (antibody, V domains shown) VH: QVQLVQSGSELKKPGASVKVSCKASGYTFTYHGMDWVRQAPGQGLEWMGWINTYSGVPTYADDFKGRFVFSLDTSVSTAYLQISSLKAEDTAVYFCARRRDFTMDFWGQGTTVTVSS VL: NIVLTQSPDSLAVSLGERATINCKSSQSLLNSRTRKNYLAWFQQKPGQPPKLLIYWASTRESGVPDRFSGSGSGTDFTLTISSLQAEDVAVYYCKQSYTLRTFGGGTKVEIKR
							0.286 nM	0.00342 s⁻¹	1.2e+07 M⁻¹ s⁻¹	humanized 16B5 antibody, version H1L2 (antibody, V domains shown) VH: QVQLVQSGSELKKPGASVKVSCKASGYTFTYHGMDWVRQAPGQGLEWMGWINTYSGVPTYADDFKGRFVFSLDTSVSTAYLQISSLKAEDTAVYFCARRRDFTMDFWGQGTTVTVSS VL: NIVLTQSPDSLAVSLGERATINCKSSQSLLNSRTRKNYLAWFQQKPGQSPKLLIYWASTRESGVPDRFSGSGSGTDFTLTISSLQAEDVAVYYCKQSYTLRTFGGGTKVEIKR
							0.32 nM	0.00398 s⁻¹	1.25e+07 M⁻¹ s⁻¹	humanized 16B5 antibody, version H1L3 (antibody, V domains shown) VH: QVQLVQSGSELKKPGASVKVSCKASGYTFTYHGMDWVRQAPGQGLEWMGWINTYSGVPTYADDFKGRFVFSLDTSVSTAYLQISSLKAEDTAVYFCARRRDFTMDFWGQGTTVTVSS VL: DIVLTQSPDSLAVSLGERATINCKSSQSLLNSRTRKNYLAWFQQKPGQSPKLLIYWASTRESGVPDRFSGSGSGTDFTLTISSLQAEDVAVYYCKQSYTLRTFGGGTKVEIKR
